What was measured:
Test in all cases: Kinase Profiling Assay
Assay type in all cases: biochemical
Conditions in all cases: 100 μM
[1] = molecular target: T1, PKG1α (h) (Homo sapiens, UniProt Q13976)
T1 sequence (Q13976 1-671): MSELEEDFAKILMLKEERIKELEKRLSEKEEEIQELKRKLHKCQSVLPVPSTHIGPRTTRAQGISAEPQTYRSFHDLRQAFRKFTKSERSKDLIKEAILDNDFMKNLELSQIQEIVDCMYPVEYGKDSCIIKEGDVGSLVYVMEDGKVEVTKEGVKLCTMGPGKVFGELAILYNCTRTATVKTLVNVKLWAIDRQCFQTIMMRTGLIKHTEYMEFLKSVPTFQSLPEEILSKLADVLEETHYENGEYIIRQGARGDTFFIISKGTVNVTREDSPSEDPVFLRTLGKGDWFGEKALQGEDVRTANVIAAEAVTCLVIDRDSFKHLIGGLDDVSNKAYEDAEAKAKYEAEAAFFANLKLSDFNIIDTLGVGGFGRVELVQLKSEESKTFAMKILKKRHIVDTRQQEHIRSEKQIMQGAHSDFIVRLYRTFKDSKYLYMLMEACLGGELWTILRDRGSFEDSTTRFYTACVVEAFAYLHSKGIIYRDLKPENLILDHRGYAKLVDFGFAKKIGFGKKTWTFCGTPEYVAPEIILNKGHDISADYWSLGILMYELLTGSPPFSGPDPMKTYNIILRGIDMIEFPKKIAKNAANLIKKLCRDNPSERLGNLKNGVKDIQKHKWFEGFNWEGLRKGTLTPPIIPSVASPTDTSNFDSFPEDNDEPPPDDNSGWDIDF
Outline: (§1)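 Measured twice per kinase, activity in presence of MK2 inhibitory peptide was calculated against a 100% activity control after radiometric phosphorylation of a cationic substrate, anionic filter capture and scintillation counting; one of 266 human kinases profiled for specificity.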

[2] = molecular target: Ret (V804L) (h) (Homo sapiens, UniProt P07949, V804L)
Outline: as §1

[3] = molecular target: MARK1 (h) (Homo sapiens, UniProt Q9P0L2)
MARK1 (h), sequence (Q9P0L2 whole entry): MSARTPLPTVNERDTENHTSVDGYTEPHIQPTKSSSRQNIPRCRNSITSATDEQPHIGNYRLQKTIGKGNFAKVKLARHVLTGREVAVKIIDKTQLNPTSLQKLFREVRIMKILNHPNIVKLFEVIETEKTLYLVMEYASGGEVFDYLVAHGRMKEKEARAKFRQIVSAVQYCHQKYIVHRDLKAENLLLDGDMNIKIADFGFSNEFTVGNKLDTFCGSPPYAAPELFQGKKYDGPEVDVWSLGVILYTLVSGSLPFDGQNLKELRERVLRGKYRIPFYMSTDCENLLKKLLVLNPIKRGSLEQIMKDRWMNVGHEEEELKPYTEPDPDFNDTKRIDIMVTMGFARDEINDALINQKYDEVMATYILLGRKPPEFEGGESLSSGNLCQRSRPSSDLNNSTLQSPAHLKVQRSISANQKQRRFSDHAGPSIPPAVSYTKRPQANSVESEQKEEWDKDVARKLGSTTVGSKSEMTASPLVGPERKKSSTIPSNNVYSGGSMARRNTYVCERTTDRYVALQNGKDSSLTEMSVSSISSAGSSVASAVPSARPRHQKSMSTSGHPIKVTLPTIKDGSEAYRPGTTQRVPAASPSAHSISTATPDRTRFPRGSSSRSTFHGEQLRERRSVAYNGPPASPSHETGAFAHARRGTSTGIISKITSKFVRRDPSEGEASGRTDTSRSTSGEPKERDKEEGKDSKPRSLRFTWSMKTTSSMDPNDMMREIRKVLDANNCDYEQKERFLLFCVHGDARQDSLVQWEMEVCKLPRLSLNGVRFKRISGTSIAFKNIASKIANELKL
Outline: as §1

[4] = molecular target: FGFR4 (h) (Homo sapiens, UniProt P22455)
Outline: as §1

[5] = molecular target: T2, mTOR/FKBP12 (h) (Homo sapiens, UniProt P42345)
T2 construct: purchased Millipore
T2 sequence (P42345 1362-2549 limits assumed): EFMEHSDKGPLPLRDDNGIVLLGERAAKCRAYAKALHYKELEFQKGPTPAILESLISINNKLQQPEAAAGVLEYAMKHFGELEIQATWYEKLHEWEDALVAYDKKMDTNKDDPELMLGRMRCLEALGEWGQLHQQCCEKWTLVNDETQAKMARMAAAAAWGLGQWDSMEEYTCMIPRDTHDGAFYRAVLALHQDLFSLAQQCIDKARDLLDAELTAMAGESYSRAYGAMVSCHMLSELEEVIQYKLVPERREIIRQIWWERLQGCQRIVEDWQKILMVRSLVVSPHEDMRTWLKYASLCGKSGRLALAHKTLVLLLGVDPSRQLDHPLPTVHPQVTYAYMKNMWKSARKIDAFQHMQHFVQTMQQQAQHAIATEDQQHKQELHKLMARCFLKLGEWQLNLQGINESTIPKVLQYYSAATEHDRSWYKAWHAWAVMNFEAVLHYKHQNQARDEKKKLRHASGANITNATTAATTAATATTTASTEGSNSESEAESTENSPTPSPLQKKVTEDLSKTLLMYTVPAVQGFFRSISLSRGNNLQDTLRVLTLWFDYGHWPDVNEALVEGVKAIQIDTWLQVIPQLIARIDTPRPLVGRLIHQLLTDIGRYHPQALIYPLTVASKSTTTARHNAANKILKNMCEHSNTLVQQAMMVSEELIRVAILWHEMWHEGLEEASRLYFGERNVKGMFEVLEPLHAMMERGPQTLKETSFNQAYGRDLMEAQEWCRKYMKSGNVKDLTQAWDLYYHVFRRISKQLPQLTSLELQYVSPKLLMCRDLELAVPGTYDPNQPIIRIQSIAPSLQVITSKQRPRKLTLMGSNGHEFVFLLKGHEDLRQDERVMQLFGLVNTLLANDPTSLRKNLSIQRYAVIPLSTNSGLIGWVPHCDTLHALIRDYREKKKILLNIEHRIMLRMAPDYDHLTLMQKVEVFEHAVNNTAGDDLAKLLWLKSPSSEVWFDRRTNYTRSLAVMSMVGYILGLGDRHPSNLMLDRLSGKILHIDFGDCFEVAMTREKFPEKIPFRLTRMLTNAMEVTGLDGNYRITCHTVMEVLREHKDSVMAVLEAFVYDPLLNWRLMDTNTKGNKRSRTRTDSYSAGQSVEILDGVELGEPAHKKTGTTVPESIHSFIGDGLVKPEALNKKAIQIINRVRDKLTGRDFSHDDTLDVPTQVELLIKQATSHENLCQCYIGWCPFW
Outline: as §1

[6] = molecular target: T3, CLK3 (h) (Homo sapiens, UniProt P49761)
T3 construct: purchased Millipore
T3 sequence (P49761 whole entry): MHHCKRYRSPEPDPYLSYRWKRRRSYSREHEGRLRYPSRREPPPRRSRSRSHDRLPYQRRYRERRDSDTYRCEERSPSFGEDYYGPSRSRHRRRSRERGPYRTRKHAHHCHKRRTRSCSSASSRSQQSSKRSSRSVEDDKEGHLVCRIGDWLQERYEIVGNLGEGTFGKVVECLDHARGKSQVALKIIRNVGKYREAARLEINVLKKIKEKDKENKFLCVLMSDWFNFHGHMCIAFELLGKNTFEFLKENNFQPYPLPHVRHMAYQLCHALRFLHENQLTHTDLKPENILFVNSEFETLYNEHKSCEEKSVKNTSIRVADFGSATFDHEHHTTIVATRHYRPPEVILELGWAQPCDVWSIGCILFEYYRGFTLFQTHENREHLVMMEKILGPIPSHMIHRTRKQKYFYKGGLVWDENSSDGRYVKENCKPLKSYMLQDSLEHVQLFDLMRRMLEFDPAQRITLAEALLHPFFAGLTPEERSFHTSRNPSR
Outline: as §1

[7] = molecular target: T4, TAK1 (h) (Homo sapiens, UniProt O43318)
T4 sequence (O43318 with tags, fused parts or gaps limits assumed): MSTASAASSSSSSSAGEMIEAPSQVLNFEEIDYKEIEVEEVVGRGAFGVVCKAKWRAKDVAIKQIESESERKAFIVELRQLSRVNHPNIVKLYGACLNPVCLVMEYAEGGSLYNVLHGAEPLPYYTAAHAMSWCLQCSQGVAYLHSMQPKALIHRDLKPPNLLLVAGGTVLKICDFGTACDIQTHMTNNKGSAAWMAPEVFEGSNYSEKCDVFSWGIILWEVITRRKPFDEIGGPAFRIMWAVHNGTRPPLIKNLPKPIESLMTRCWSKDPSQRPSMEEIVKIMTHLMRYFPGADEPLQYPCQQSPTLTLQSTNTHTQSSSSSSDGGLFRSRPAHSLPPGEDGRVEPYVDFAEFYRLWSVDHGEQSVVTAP
Outline: as §1

[8] = molecular target: T5, NEK3 (h) (Homo sapiens, UniProt P51956)
T5 construct: purchased Millipore
T5 sequence (P51956 1-506): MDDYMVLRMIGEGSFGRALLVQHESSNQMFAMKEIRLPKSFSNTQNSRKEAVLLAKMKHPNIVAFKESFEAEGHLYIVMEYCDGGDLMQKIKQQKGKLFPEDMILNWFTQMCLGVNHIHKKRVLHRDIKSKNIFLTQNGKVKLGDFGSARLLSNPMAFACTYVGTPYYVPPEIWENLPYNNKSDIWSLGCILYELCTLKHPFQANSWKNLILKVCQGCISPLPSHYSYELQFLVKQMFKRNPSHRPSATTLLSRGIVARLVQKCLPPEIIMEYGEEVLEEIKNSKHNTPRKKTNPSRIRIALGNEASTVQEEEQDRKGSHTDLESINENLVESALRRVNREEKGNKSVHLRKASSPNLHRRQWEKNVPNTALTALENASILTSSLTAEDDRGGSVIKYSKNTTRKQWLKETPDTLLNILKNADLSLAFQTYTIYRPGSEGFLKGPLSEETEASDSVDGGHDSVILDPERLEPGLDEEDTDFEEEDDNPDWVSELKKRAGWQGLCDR
Outline: as §1

[9] = molecular target: T6, PKCδ (h) (Homo sapiens, UniProt Q05655)
T6 construct: purchased Millipore
T6 sequence (Q05655 whole entry): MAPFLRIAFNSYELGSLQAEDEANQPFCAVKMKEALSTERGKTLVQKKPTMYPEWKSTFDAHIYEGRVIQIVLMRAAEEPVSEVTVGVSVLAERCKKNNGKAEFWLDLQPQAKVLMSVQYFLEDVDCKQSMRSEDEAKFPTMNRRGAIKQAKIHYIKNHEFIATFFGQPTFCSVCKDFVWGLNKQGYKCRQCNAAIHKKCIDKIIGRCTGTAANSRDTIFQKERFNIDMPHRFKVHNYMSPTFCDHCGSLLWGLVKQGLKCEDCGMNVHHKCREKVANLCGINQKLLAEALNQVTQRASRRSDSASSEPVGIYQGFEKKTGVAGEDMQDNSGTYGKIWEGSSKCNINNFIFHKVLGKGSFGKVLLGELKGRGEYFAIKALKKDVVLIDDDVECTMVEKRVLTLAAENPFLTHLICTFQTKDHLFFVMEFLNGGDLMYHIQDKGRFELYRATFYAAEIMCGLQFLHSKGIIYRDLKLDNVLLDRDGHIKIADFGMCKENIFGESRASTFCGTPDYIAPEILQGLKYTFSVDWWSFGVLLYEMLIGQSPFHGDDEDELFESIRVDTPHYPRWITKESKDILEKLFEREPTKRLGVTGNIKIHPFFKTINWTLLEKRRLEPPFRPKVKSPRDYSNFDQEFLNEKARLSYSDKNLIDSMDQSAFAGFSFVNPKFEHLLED
Outline: as §1

[10] = molecular target: Fms(Y969C) (h) (Homo sapiens, UniProt P07333, Y969C)
Outline: as §1

[11] = molecular target: T7, CDK5/p25 (h) (Homo sapiens, UniProt Q00535)
T7 construct: purchased Millipore
T7 sequence (Q00535 whole entry): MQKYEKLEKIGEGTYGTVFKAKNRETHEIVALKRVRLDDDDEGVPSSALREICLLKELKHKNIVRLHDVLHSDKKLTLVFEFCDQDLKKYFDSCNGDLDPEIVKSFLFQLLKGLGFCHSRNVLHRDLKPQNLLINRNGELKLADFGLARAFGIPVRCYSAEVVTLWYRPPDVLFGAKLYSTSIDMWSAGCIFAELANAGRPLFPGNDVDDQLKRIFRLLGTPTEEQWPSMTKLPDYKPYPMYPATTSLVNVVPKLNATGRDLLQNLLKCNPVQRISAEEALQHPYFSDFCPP
T7 sequence (Q15078 99-307 partner limits assumed): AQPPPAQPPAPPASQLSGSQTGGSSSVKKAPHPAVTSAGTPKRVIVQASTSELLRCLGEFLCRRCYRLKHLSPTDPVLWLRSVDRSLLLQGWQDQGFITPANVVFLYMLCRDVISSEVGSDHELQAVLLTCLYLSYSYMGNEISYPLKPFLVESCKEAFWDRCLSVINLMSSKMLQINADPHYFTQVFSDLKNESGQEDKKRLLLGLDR
Outline: as §1

[12] = molecular target: T8, DRAK1 (h) (Homo sapiens, UniProt Q9UEE5)
T8 construct: purchased Millipore
T8 sequence (Q9UEE5 1-414): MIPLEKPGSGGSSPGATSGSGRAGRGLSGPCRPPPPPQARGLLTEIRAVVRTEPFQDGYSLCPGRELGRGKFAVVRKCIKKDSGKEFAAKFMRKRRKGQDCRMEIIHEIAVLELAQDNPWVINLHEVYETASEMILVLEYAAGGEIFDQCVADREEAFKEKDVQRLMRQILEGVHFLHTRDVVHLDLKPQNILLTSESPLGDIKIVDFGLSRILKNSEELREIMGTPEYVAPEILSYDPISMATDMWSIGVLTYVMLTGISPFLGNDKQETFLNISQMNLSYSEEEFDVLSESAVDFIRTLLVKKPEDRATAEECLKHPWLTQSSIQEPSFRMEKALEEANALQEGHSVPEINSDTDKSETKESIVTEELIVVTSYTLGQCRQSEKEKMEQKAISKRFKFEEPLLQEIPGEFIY
Outline: as §1

Row | Sequence | % activity [1] [%] | % activity [2] [%] | % activity [3] [%] | % activity [4] [%] | % activity [5] [%] | % activity [6] [%] | % activity [7] [%] | % activity [8] [%] | % activity [9] [%] | % activity [10] [%] | % activity [11] [%] | % activity [12] [%]
1 | FAKLAARLYRKALARQLGVAA [MMI-0300] | 64 | 79 | 132 | 28 | 145 | 61 | 122 | 92 | 101 | 72 | 89 | 14
2 | HRRIKAWLKKIKALARQLGVAA (Mammalian) [MMI-0500] | 25 | 20 | 110 | 3 | 140 | 76 | – | 20 | 61 | – | 66 | 8
3 | KAFAKLAARLYRKALARQLGVAA [MMI-0400] | 58 | 73 | 120 | 19 | 125 | 84 | 177 | 85 | 90 | 91 | 92 | 14
4 | YARAAARQARAKALNRQLGVA (Mammalian) [MMI-0200] | 70 | 100 | – | 75 | 118 | 76 | 124 | 100 | 101 | 88 | 97 | 34

From patent publication US10500249B2, “Compositions and methods for preventing or treating diseases, conditions, or processes characterized by aberrant fibroblast proliferation and extracellular matrix deposition” (MOERAE MATRIX, INC., priority 2014, dated 2019)
